Laboratory results published in patent US20260325660 (published 2026).

Tests used:
[1] = target: ROR1 with Ig-like domain removed (human); assay: FACS
[2] = target: T1, human ROR1 on tumor cell surface (human, UniProt Q01973); assay: FACS, MDA-MB-231
[3] = target: ROR1 with Ig-like domain removed (human); assay: FACS; remark: listed apart in the source
[4] = target: T1, human ROR1 on tumor cell surface; assay: FACS, NCI-H226
[5] = target: ROR1 extracellular segment (with transmembrane) on CHO (human); assay: FACS
[6] = target: ROR1 with Kringle domain removed (human); assay: FACS
human ROR1-ECD = human ROR1-ECD (human); assay: ELISA
[7] = target: T2, ROR1 with Frizzled domain removed (human); assay: FACS
T2 chain: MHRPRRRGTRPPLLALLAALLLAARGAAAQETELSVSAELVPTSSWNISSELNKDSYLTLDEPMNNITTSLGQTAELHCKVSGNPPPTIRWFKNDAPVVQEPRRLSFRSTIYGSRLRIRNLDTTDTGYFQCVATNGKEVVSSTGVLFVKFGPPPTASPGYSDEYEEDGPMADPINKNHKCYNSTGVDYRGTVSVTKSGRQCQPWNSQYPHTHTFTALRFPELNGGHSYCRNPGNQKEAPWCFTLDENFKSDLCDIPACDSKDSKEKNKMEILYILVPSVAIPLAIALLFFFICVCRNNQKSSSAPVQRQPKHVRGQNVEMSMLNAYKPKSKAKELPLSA

human ROR2-ECD = human ROR2-ECD (human, UniProt Q01974); assay: ELISA
human ROR2-ECD, sequence (Q01974 34-403): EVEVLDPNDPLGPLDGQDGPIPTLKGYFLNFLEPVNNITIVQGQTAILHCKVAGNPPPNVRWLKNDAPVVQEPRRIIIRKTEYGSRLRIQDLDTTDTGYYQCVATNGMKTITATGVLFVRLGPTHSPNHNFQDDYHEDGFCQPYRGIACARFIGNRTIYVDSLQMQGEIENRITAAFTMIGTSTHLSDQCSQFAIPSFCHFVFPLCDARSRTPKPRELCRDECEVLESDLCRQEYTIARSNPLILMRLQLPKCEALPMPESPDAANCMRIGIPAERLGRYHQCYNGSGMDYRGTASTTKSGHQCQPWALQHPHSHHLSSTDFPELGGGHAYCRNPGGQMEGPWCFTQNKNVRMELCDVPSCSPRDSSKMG

T1 sequence (Q01973 30-406): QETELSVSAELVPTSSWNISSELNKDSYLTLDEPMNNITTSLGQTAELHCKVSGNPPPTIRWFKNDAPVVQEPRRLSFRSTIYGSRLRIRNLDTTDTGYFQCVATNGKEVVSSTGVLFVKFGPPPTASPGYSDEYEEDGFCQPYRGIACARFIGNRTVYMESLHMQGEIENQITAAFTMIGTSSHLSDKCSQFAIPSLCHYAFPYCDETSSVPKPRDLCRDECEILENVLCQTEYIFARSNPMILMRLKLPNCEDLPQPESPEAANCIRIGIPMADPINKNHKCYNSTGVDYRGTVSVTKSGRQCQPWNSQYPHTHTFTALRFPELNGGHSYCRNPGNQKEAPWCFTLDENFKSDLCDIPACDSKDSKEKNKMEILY
human ROR1-ECD (human), sequence (chain, as listed by the source): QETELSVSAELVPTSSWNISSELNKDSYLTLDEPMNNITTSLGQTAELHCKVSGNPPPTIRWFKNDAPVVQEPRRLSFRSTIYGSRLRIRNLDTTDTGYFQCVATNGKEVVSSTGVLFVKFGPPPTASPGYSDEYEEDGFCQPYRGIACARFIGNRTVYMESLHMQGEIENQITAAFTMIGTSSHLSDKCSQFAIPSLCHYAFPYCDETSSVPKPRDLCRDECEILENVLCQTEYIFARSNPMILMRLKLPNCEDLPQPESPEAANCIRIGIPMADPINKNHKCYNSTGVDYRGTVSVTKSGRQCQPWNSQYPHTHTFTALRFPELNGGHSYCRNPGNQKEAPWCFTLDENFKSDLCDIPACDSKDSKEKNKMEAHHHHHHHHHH

B1: mAb005c (antibody, V domains shown)
VH: EVQLVESGGGLVKPGGSLKLSCAASGFTFNSYAMSWVRQTPEKRLEWVATISDGGSYTYYPDNEKGRFTISRDNAKNNLYLQMSHLKSEDTAIYYCVRGGYYYNLYAMDYWGQGTSVTVSS
VL: DIVLTQSPASLAVSLGQRAIISCKASQSVSFPGTSLMHWYQQKPGQQPKLLIYRASNLEAGVPTRFSGSGSRTDFTLNIHPVEEDDTATYYCQQSREYPWTFGGGTQLEIK
B1: no binding [1].

B2: mAb002c (antibody)
chain 1: EVQLQQSGPELVKPGASVKMSCKTSGYTFTDYNLHWVKQSHRRSLEWIGYINPNNGGTTYNQKFKGKATLTVDKSSSTAYMELRSLTSEDSAVYYFVRRVRTGTGFDYWGQGTTLTVSS
chain 2: EVLMTQTPLSLPVSLGDQASISCKSSHNILHTNGNTYLEWYLQKPGQSPKLLIYKVSNRFSGVPDRFSGSGSGTDFTLTISRVEAEDLGVYYCFQGSRFPYTFGGGTKLEIK
Binder B2 has an EC50 [2] of 0.2 nM, an EC50 [3] of 0.35 nM and an EC50 [4] of 0.14 nM. For the same binder, the EC50 [5] was 0.6 nM, the EC50 [6] was 0.66 nM and the EC50 (human ROR1-ECD) was 0.013 nM. For the same binder, the EC50 [7] was 0.86 nM.

B3: Hu005-46 (antibody, V domains shown)
VH: EVQLVESGGGLVKPGGSLRLSCAASGFTFNSYAMSWVRQTPGKRLEWVATISDAGSYTYYPDNEKGRFTISRDNAKNSLYLQMNSLRAEDTAIYYCVRGGYYYNLYAMDYWGQGTLVTVSS
VL: DIVLTQSPDSLAVSLGERATINCKASQSVSFPGTSLMHWYQQKPGQQPKLLIYRASNLEAGVPDRFSGSGSRTDFTLTISSLQAEDVAVYYCQQSREYPWTFGGGTKVEIK
B3: no binding (human ROR2-ECD).

B4: mAb002 (mouse) (antibody)
chain 1: EVQLQQSGPELVKPGASVKMSCKTSGYTFTDYNLHWVKQSHRRSLEWIGYINPNNGGTTYNQKFKGKATLTVDKSSSTAYMELRSLTSEDSAVYYFVRRVRTGTGFDYWGQGTTLTVSS
chain 2: EVLMTQTPLSLPVSLGDQASISCKSSHNILHTNGNTYLEWYLQKPGQSPKLLIYKVSNRFSGVPDRFSGSGSGTDFTLTISRVEAEDLGVYYCFQGSRFPYTFGGGTKLEIK
With B4 the EC50 [2] was 0.11 nM and the EC50 (human ROR1-ECD) was 0.028 nM.

B5: mAb003c (antibody, V domains shown)
VH: EVQLVESGGGLVKPGGSLKLSCAASGFTFSSYAMSWVRQTPEKRLEWVATISDGGSYTYYPDSVKGRFTISRDNAKNNLYLQMSHLKSEDTDMYYCVRGGYYYNLYAMDYWGQGTSVTVSS
VL: DIVLTQSPASLAVSLGQRAIISCKASQSVSFAGTSLMHWYQQKPGQQPKLLIYRASNLEAGVPTRFSGSGSRADFTLNIHPVEEDDAATYYCQQSGEYPWTFGGGTKLEIK
B5: no binding [1].

B6: UC-961 (antibody, V domains shown)
VH: QVQLQESGPGLVKPSQTLSLTCTVSGYAFTAYNIHWVRQAPGQGLEWMGSFDPYDGGSSYNQKFKDRLTISKDTSKNQVVLTMTNMDPVDTATYYCARGWYYFDYWGHGTLVTVSS
VL: DIVMTQTPLSLPVTPGEPASISCRASKSISKYLAWYQQKPGQAPRLLIYSGSTLQSGIPPRFSGSGYGTDFTLTINNIESEDAAYYFCQQHDESPYTFGEGTKVEIK
B6: no binding [1].

B7: Hu001-02 (antibody, V domains shown)
VH: QVQLVQSGAEVKKPGASVKVSCKASGYTFTDYNLHWVRQAPGQGLEWMGYINPNHDATSYNQKFQGRVTMTRDTSTSTVYMELSSLRSEDTAVYYCARRVRTGTGLDDWGQGTTVTVSS
VL: DVVMTQSPLSLPVTLGQPASISCRSSHNIVHTNANTYLEWYQQRPGQSPRLLIYKVSNRFSGVPDRFSGSGSGTDFTLKISRVEAEDVGVYYCFQGSRFPYTFGGGTKVEIK
B7: no binding (human ROR2-ECD).
